# B1: C11 Fab (Fab, V domains shown)
# VH: EVQLVESGGGLVKPGGSLRLSCAASGFTFSSYSMNWVRQAPGRGLEWVSSISNTSTYIYYADSVEGRFTLSRDNAKNSLYLQMNSLRAEDTAVYYCARANQHFDWLLSLLGGYHYYGMDVWGQGTTVTVSS
# VL: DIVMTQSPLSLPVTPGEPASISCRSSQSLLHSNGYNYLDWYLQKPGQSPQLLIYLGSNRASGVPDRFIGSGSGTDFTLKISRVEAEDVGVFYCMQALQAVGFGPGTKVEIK
# B2: CH55 mAb (antibody, V domains shown)
# VH: QVQLVQSGAEVKKPGASVKVSCKASGYIFISYFMHWVRQAPGQGLEWMGIINPSSGDTRYAQKFQGRVTMTRDTSTNTVYMELSSLRSDDTAVYYCARRPGGLERHNWLDPWGQGTLVTVSS
# VL: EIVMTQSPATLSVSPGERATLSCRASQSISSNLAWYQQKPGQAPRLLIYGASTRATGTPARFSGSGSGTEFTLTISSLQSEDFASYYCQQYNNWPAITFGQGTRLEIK
# B3: DH677.3 mAb (antibody, V domains shown)
# VH: QVQLVQSGAEVQKPGASVKVSCKASGYTFASYDINWVRQATGQGLEWMGWMNPKTGNTGYAQKFQGRVTLTRNTSISTAYMELTSLRSEDTAVYYCATYRIIAAVGYRYFQYWGQGTLVTVSS
# VL: DIQLTQSPSSLSASVGDSVTITCRASQGFGNYLAWYQQRPGKVPEVLIYAATTLQSGVPSRFSGSGSGTDFTLTISSLQPEDVATYYCQKYNSAPFTFGQGTRLEIK
# B4: CH54 mAb (antibody, V domains shown)
# VH: QVQLVQSGPEVKKPGTSMKISCKASGFTFTRSTMQWVRQARGQRLEWIGWIVVGSGNTNYAQKFQERVTITRDMSTSTAYMELSSLRSEDTAVYYCAAAPVGPTSSDYWGQGTLVTVSS
# VL: DIQMTQSPSSLSASVGDRVTITCRASQSIINYLNWYQQKPGRAPKLLIYAASSLLSGVPSRFSGSGSGTDFTLTISSLQPEDFATYYCQQSYSTPYTFGQGTKLEIK
# B5: A32 mAb (antibody, V domains shown)
# VH: QVQLQESGPGLVKPSQTLSLSCTVSGGSSSSGAHYWSWIRQYPGKGLEWIGYIHYSGNTYYNPSLKSRITISQHTSENQFSLKLNSVTVADTAVYYCARGTRLRTLRNAFDIWGQGTMVTVSS
# VL: VLTQPPSASGSPGQSVTISCTGTSSDVGGYNYVSWYQHHPGKAPKLIISEVNNRPSGVPDRFSGSKSGNTASLTVSGLQAEDEAEYYCSSYTDIHNFVFGGGTKLTVL
# B6: N12-i3 mAb (antibody, V domains shown)
# VH: QVQLVQSGAEVKKPGSSVRVSCKASGGSFSRYTVNWVRQAPGQGLEWMARFIPIFNMPDYAPKFQGRITITADESTSTAYLELSSLTSDDTAVYYCASRQHHEYFQEWGQGTLVTVSS
# VL: EIVLTQSPGTLSMSPGERATLSCRASRTVSSSNLAWYQQKPGQAPRLLIYDVSSRATGIPDRFSGRGSGTDFTLTISRLEPEDFAVYYCQQYGTSPLTFGGGTKVEIK
# B7: C11 mAb (antibody, V domains shown)
# VH: B1 VH
# VL: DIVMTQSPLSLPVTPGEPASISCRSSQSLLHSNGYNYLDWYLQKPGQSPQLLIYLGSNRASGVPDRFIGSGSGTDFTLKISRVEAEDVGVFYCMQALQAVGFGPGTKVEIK
# Molecular target: T1, full-length single-chain gp120BaL-CD4 complex (FLSC) (HIV-1 clade B, BaL (gp120 moiety); CD4 …, UniProt Q2MKA8, strain)
# T1 construct: also called full-length single-chain protein
# Assay: FRET or BRET + other: fluorescence correlation spectroscopy
# Details: both partners purified
row,Binder,binding result
1,B1,binds

# Molecular target: full-length monomeric gp120 (clade B, BaL strain) (HIV-1 clade B, strain BaL, UniProt Q2MKA8, strain)
# Assay: flow cytometry on cells
# Details: one partner purified
row,Binder,binding result
1,B2,binds
2,B3,binds
3,B4,binds
4,B5,binds
5,B6,binds
6,B7,binds

# Reference: article PMC7327165 (mBio, 2020)
